These results are taken from US20260250418A1 (BIOCYTOGEN PHARMACEUTICALS BEIJING, published 2026).

First the molecules themselves.
B1: anti-HER3 antibody 1C5 (antibody, V domains shown)
VH: QVQLVESGGGVVQPGKSLRLSCAASGFTFSRSGMHWVRQAPGKGLEWVALISFDGSNKYYADSVKGRFTISRDNSKNTLNLQMNSLRAEDTAVYYCAKGGFGVVIYDAFDIWGHGTMVTVSS
VL: not shown
notes: common light chain
B2: anti-HER3 antibody 3G6 (antibody, V domains shown)
VH: QVQLVQSGPVLVKPTETLTLTCTVSGFSLSNIRMGVSWIRQPPGKALEWLAHIFSNDDKSYSTSLKSRLTISKDTSKSQVVLTMTNVDPVDTATYYCTRMRYSGGPFDYWGQGTLVTVSS
VL: not shown
notes: common light chain
B3: anti-HER3 antibody 1B2 (antibody, V domains shown)
VH: B2 VH with G26T, I32A, T63P, S78T, V87M, T98S, T114S
VL: not shown
notes: common light chain
B4: anti-HER3 antibody 3E1 (antibody, V domains shown)
VH: B2 VH with Q1E, V12A, T63P, S67N, N86T, V87M, V90M, R101K
VL: not shown
notes: common light chain

Residue numbers refer to the chain shown, from its start.

T2 sequence (Q61526 20-641): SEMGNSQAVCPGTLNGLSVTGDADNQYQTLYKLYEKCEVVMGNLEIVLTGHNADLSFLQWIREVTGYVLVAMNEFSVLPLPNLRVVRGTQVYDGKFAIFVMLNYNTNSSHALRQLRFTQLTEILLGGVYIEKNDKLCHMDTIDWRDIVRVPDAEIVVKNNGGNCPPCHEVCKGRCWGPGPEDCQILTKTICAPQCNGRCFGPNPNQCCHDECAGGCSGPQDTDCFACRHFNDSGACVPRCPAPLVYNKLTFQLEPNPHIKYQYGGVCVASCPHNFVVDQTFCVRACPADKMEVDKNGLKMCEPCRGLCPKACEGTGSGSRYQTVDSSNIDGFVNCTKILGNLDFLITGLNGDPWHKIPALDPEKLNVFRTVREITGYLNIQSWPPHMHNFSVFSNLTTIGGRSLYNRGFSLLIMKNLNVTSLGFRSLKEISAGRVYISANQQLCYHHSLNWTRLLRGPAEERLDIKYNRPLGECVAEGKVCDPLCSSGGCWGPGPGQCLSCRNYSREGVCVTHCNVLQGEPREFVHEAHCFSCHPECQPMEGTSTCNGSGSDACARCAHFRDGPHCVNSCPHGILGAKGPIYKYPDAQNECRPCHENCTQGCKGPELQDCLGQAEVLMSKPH

The first assay addresses T1, dog HER3 on CHO-dHER3 cells (dog, UniProt P21860 20-1342 (human entry)).
T1 construct: CHO-S cells transfected with dHER3
T1 chain: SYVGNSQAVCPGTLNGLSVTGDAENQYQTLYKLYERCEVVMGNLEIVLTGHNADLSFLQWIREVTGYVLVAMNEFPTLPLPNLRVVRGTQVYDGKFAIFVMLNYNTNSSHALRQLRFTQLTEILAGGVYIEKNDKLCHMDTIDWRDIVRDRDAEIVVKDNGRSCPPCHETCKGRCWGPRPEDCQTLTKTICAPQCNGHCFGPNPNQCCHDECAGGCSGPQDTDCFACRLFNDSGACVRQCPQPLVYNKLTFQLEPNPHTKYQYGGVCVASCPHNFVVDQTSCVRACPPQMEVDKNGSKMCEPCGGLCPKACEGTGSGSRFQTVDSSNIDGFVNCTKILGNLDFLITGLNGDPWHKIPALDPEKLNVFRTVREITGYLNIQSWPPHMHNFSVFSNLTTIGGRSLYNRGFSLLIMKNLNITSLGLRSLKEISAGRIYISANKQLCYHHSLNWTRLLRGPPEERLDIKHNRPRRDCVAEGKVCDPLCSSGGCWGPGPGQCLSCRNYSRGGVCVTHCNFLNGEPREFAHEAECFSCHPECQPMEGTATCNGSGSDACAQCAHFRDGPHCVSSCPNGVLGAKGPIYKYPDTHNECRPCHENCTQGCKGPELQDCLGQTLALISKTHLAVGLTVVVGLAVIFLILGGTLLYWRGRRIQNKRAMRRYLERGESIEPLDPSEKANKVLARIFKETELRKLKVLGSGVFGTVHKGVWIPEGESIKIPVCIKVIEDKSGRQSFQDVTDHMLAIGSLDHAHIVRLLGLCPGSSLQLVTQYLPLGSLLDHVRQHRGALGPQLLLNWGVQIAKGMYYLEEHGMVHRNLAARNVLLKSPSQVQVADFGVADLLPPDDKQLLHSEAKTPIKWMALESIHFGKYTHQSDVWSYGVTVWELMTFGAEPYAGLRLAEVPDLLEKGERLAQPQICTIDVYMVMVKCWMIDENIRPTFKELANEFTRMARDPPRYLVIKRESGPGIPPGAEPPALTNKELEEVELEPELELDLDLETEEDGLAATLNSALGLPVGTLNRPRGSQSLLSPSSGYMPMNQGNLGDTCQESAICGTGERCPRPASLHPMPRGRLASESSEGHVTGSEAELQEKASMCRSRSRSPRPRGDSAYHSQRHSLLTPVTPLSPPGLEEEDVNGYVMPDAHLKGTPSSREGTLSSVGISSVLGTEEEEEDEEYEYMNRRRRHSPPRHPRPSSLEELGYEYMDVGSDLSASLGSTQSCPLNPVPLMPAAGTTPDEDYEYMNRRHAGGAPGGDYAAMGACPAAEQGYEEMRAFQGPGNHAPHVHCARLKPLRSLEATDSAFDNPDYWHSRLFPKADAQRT
Nature of the assay: flow cytometry, transfected CHO cells. The protocol: (§1) CHO-hHER3 cells, CHO-mHER3 cells, CHO-fasHER3 cells or CHO-dHER3 cells were transferred to a 96-well plate at a density of 5×10⁴ cells/well respectively. The anti-HER3 antibodies were added to the 96-well plate, and incubated at 4° C. for 30 min.
Consider B1, for which the “Percentage of Positive Cells” value turned out to be 33.1%.
The same measure, in the same setting: then B2, with 29.8%; and B3, with 32.1%.
Same read-out and setting: as for B4, the figure is 13.2%.

The next assay concerns the target T2, mouse HER3 on CHO-mHER3 cells (mouse, UniProt Q61526 20-641).
T2 construct: CHO-S cells transfected with mHER3
Nature of the assay: flow cytometry, transfected CHO cells. As for the experimental part: as §1
Regarding B1, the “Percentage of Positive Cells” value was 3.4% and the binding result is recorded as “no binding”.
Regarding B2, the “Percentage of Positive Cells” value was found to be 15.2%.
On the same count and under the same terms, as for B3, the figure is 22.4%; as for B4, 23%.

The next assay deals with T3, human HER3 on CHO-hHER3 cells (human, UniProt P21860 20-643).
T3 construct: CHO-S cells transfected with hHER3
Nature of the assay: flow cytometry, transfected CHO cells. The protocol:
as §1
(Flow cytometry measures light scatter and fluorescence of single cells or particles in a stream.)
For the molecule B1, the “Percentage of Positive Cells” value worked out at 74%.
Still for that read-out and setting: as for B2, the figure is 66.5%; as for B3, 71.3%.
On the same count and under the same terms, as for B4, the figure is 70.6%.

For the next assay, the target named is T4, His-tagged human HER3 protein (hHER3, ACRO Biosystems Inc., Cat #: ER3-H5223) (human, UniProt P21860 20-643).
T4 construct: Bought protein; also called hHER3-His; not shown: His tag
Nature of the assay: SPR, Ab captured on Protein A. As for the experimental part:
(§2) Purified anti-HER3 antibodies was captured on the Protein A chip (Series S Sensor Chip Protein A) for the detection. […] For ISO control, an antibody targeting an irrelevant target protein was used. The flow rate was 30 μL/min, the binding and dissociation time were set to 180 s and 400 s, respectively. The chip was regenerated after the last injection of each titration with a glycine solution (pH 2.0) at 30 μL/min for 30 seconds.
(§3) As a person of ordinary skill in the art would understand, the same method with appropriate adjustments for parameters (e.g., antibody concentration) was performed for each tested antibody.
In general terms: Surface plasmon resonance follows binding to a sensor surface in real time, without labels.
What is called Kd is the constant that tells how readily two partners part at equilibrium. What is called koff is a measure of how fast the partners let go of each other. Broadly, the kon is a measure of how fast the partners come together. The molecule B1 showed a Kd of 0.03 µM, a dissociation rate constant (koff) of 0.000637 s⁻¹ and an on-rate constant (kon) of 21200 M⁻¹ s⁻¹.
The corresponding values for B2 are 0.0348 µM, 0.0091 s⁻¹ and 261000 M⁻¹ s⁻¹.
With B3, binding was characterised by a dissociation constant (Kd) of 0.0133 µM, the koff worked out at 0.00239 s⁻¹ and the kon is 179000 M⁻¹ s⁻¹.
Taken in the same sequence, the figures for B4 were 0.0115 µM, 0.00319 s⁻¹ and 277000 M⁻¹ s⁻¹.

Another assay has as its target T5, His-tagged dog HER3 protein (dHER3, SEQ ID NO: 45) (dog, UniProt P21860 20-642 (human entry)).
T5 construct: not shown: His tag
T5 chain: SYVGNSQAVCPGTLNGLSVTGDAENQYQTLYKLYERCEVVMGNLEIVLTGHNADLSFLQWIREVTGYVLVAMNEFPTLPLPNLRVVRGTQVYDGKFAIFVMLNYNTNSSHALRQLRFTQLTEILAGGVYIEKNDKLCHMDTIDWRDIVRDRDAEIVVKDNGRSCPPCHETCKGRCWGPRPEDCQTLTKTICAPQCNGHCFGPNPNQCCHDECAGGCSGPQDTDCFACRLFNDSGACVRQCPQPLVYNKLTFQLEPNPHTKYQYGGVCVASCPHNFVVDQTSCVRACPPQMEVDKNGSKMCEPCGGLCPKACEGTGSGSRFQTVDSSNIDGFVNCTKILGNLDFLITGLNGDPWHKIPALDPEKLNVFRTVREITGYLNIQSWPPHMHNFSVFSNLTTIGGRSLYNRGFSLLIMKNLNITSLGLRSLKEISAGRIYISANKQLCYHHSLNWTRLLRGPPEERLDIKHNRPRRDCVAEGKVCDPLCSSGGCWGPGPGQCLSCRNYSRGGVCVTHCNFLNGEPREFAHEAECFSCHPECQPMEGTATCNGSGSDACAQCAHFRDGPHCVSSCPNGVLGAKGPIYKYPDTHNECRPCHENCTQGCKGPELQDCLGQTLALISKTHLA
Nature of the assay: SPR, Ab captured on Protein A. The protocol: as §2, §3
In the case of B1, the Kd was determined as 0.0334 µM, the off-rate constant (koff) stood at 0.000418 s⁻¹ and the kon is 12500 M⁻¹ s⁻¹.
Molecule B2 came in with an equilibrium dissociation constant (Kd) of 0.146 µM, a koff of 0.00809 s⁻¹ and a kon of 55500 M⁻¹ s⁻¹.
The corresponding values for B3 are 0.0618 µM, 0.00223 s⁻¹ and 36100 M⁻¹ s⁻¹.
Taken in the same sequence, the figures for B4 were 0.0504 µM, 0.00288 s⁻¹ and 57100 M⁻¹ s⁻¹.

Another assay deals with T6, His-tagged monkey HER3 protein (fasHER3, Sino Biological, Inc., Cat #: 90043-K08H) (monkey).
T6 construct: Bought protein
Nature of the assay: SPR, Ab captured on Protein A. As for the experimental part:
as §2, §3
Regarding B1, the affinity, expressed as Kd, was 0.0317 µM; the off-rate (koff) worked out at 0.000582 s⁻¹; the kon amounted to 18400 M⁻¹ s⁻¹.
For B2, the Kd was determined as 0.0509 µM, the koff was determined as 0.00834 s⁻¹ and the on-rate (kon) was 164000 M⁻¹ s⁻¹.
The corresponding values for B3 are 0.0223 µM, 0.00224 s⁻¹ and 100000 M⁻¹ s⁻¹.
The corresponding values for B4 are 0.0191 µM, 0.00289 s⁻¹ and 152000 M⁻¹ s⁻¹.
